Experimental data taken from patent publication US11814440B2, “Glypican 2 as a cancer marker and therapeutic target” (THE CHILDREN'S HOSPITAL OF PHILADELPHIA, priority 2015, dated 2023).

T1: GPC2 (Homo sapiens, UniProt Q8N158)
T1 sequence (Q8N158 24-554): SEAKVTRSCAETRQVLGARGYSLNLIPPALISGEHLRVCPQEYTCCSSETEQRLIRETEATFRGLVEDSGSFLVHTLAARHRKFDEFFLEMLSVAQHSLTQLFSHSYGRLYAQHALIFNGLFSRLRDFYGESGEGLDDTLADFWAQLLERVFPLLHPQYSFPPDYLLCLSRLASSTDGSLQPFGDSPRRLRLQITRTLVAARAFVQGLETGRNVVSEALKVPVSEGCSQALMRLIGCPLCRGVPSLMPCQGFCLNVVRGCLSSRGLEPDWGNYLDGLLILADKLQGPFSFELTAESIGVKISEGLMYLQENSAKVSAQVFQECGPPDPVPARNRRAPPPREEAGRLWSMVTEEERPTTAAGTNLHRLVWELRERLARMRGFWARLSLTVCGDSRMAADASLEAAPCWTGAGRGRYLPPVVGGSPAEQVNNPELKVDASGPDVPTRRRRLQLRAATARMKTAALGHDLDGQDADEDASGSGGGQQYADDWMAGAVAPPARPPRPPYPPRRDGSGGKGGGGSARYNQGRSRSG

T2: cancer cell-associated GPC2 (Homo sapiens, UniProt Q8N158)
T2 sequence (Q8N158 24-554): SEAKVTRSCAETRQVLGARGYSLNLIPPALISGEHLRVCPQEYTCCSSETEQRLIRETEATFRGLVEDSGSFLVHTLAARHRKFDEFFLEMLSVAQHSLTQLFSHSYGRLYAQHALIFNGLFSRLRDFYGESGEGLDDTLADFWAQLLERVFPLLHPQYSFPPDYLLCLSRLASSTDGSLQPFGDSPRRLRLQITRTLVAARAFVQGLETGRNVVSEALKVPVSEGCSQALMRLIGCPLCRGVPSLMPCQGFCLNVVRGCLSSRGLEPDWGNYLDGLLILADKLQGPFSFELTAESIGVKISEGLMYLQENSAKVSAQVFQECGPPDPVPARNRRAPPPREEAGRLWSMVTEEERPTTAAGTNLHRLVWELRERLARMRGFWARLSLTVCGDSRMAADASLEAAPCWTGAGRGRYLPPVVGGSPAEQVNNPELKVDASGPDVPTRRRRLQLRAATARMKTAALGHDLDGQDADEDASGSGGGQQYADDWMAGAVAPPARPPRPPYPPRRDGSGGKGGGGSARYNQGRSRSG


Legend:
GPC2 = biological target: T1, GPC2; assay: In vitro characterization of GPC2 antibodies; details: for use in CAR-T, ADC and bispecific antibody development
[1] = biological target: T2, cancer cell-associated GPC2; assay: Targeting of GPC2 by phage display derived human antibodies; type: binding; details: isolated from phage display antibody library, affinity matured

| Molecule | therapeutic activity in in vitro characterization (GPC2) | specific targeting of cancer cell-associated GPC2 [1] |
| --- | --- | --- |
| m201 (antibody, V domains shown) VH: EVQLVETGGGVVKPGGSLRLSCAASGFTFSDYYMSWIRQAPGKGLEWVSYISSSGSTIYYADSVKGRFTISRDNSKNTLYLQMNSLRAEDTAVYYCARESGYDYVFDYWGQGTLVAVSS VL: DIQMTQSPSTLSAFVGDRVTITCRASQSISSWLAWYQQKPGKAPKLLIYAASTLQSGVPSRFSGSGSGTEFTLTISSLQPEDFATYYCQQLNSYPITFGQGTRLEIKR | promising therapeutic activity |  |
| m203 (antibody, V domains shown) VH: EVQLVQSGGGLVQPGGSLRLSCAASGFTFSSYAMSWVRQAPGKGLEWVSAISGSGGSTYYADSVKGRFTISRDNSKNTLSLQMDSLRPEDTAVYYCAKSRDSGNYLDAFDFWGQGTMVTVSS VL: DIQLTQSPSTLSASVGDRVTITCRASQSISSWLAWYQQKAGKAPRLLIYDASTLESGVPSRFSGTGSGTYFTLTISSLQPEDFATYYCQQFNSFPLTFGGGTKVEIKR | promising therapeutic activity | specifically targeting cancer cell-associated GPC2 |
| m202 (antibody, V domains shown) VH: QVQLVQSGGGLIQPGGSLRLSCAASGFTVSSNYMSWVRQAPGKGLEWVSVIYSGGSTYYADSVKGRFTISRDNSKNTLYLQMNSLRAEDTAVYYCARDSNAFDIWGQGTMVTVSS VL: EIVLTQSPLSLPVTPGEPASISCRSSQSLLYSNGYNYLDWYLQKPGKSPQVLIYLGSNRASGVPDRFSGSGSGTDFTLKISRVEAEDVGVYYCMQALQTPITFGQGTRLEIKR | promising therapeutic activity | specifically targeting cancer cell-associated GPC2 |
